Experimental data: patent US20150064177A1 (ELAN PHARMACEUTICALS, published 2015)

Biological target: T1, human α4β1 integrin (human, UniProt P13612 34-1032; P05556 21-798)
T1 construct: whole, on cells; In the ELISA it is on transformed L cells; In the adhesion assays it is on human U937 monocytic cells and human Jurkat T cells; also called VLA-4; alpha-4-beta-1 integrin
Assay: cell ELISA of crude Cos supernatants on L cells expressing α4β1 integrin
Description: Briefly, L cells transformed to express a4β1 integrin on their cell surface were plated out and grown to confluence in 96-well tissue culture plates. The samples to be tested (either crude supernatants or protein-A-purified) were serially diluted and added to each well. After incubation for 1 h on ice and very gentle washing, goat anti-mouse or anti-human (gamma-chain specific) peroxidase conjugates (Sigma) were added. After a further 1 h incubation on ice and very gentle washing, the substrate (o-phenylenediamine dihydrochloride, Sigma) was added. After incubation for 30 min at room temperature, the reaction was stopped by adding 1 M H₂SO₄, and the A₄₉₀ was measured.

B1: reshaped human 21.6 antibody (La+Ha) (antibody, human IgG1, V domains shown)
VH: QVQLVQSGAEVKKPGASVKVSCKASGFNIKDTYIHWVRQAPGQRLEWMGRIDPANGYTKYDPKFQGRVTITADTSASTAYMELSSLRSEDTAVYYCAREGYYGNYGVYAMDYWGQGTLVTVSS
VL: DIQMTQSPSSLSASVGDRVTITCKTSQDINKYMAWYQQTPGKAPRLLIHYTSALQPGIPSRFSGSGSGRDYTFTISSLQPEDIATYYCLQYDNLWTFGQGTKVEIK
notes: Human IgG1 kappa, expressed in Cos cells; not shown: human gamma-1 heavy chain constant region; human kappa light chain constant region
- binding result: binds
